Key:
[1] = target: cleaved-αA (human αA-crystallin made as his-SUMO fusion, tag removed by ulp-1) (human) (UniProt P02489); assay: SEC; analytical; 2.0 mg/mL of each variant on Superose 6 Increase in 20 mM Tris-HCl pH 7.8, 150 mM NaCl, 0.25 mL/min; molar mass from protein standards, number of subunits predicted from it; three experiments
[2] = target: recombinant human αA-crystallin (αA) (human) (UniProt P02489); assay: as above

Sequence of recombinant human αA-crystallin (αA) (P02489 whole entry): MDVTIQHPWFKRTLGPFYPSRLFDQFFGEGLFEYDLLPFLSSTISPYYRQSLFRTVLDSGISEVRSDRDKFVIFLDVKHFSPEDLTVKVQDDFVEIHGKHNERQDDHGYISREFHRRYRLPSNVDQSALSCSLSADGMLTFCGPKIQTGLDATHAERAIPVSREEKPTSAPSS
Sequence of cleaved-αA (human αA-crystallin made as his-SUMO fusion, tag removed by ulp-1) (P02489 whole entry, the tested form may be a part): as the sequence (P02489 whole entry) above

stoichiometry N [1] [subunits] | stoichiometry N [2] [subunits] | Substance
13 to 22 |  | cleaved-αA (human αA-crystallin made as his-SUMO fusion, tag removed by ulp-1) (from UniProt P02489 1-173) (natural protein)
 | 27 to 32 | recombinant human αA-crystallin (αA) (from UniProt P02489 1-173) (natural protein)
